The target in this assay is Monoclonal anti-HIV-1 Env SF12 (IgG). Put plainly: ELISA. The conditions noted are these: highest antibody concentration of the titration (last point of the curve, between 1 and 10 µg/ml); parent: est. 3.3; read off a plot. (ELISA stands for enzyme-linked immunosorbent assay.)

For the substance “YU2 gp140 foldon trimer (wild type) A281T; D368K”, the response is 2.7 OD.

The values above are taken from PMC6591006.
